In the supplement of paper PMC12764529:
± gives the half width of the 95% confidence interval.

Experiments:
[1] = folding stability dG unfold from trypsin proteolysis; higher = more stable
Method in brief: (§1)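 Digests were run with trypsin and chymotrypsin at 11 concentrations in threefold dilutions, plus a no-protease condition, on designed mini-proteins in a PA-tagged cDNA display construct. The mini-proteins were under 80 residues, had no cysteine, and were kept only when AlphaFold2 dimer inter-PAE was above 15. After sequencing, Bayesian fitting of the counts gave K50, from which unfolding free energy was derived against a sequence-predicted unfolded-state K50 and a shared folded-state K50, per protease or combined.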

[2] = folding stability dG unfold from chymotrypsin proteolysis; higher = more stable
Method in brief: as §1

[3] = folding stability dG unfold (combined trypsin and chymotrypsin); higher = more stable
Method in brief: as §1

Row | Sequence | folding stability dG unfold [1] [kJ/mol] | folding stability dG unfold [2] [kJ/mol] | folding stability dG unfold [3] [kJ/mol]
1 | SAGGSKPVYKVKIEIEFNGKKIEIEIEAETEEEAKKAVEELLKKLFEENKDNLKIKVEVEKLPEKPSAGGSA [r2_111_TrROS_Hall] | 12.3 ± 0.628 | 13.2 ± 0.837 | 13 ± 0.502
2 | SAGGSAGGMKVTSRETTEITVDTSTGKVTITTTTTLSNGTVVPVGTTTVAISELPEELLSEIESSAGGSAGG [r6_469_JUSTAS] | 1.29 ± 0.109 | 3.71 ± 0.0795 | 2.96 ± 0.176
3 | SAGGAEEKIREIAEKLGVKEVLSADEAEKLPPEYPKRIAVVPRPDGSVLVIVRLENGEVLVIEFPVDSAGGS [r16_686_TrMRF] | 6.07 ± 0.184 | 10.4 ± 0.146 | 9.01 ± 0.36
4 | SAGGSAFKIKIPEDLRGAPPGGKIEIEFPNGVRAEIEYKDGEWVIEVKHYGPNGKPVEEHEFRIKVSAGGSA [r15_558_TrROS] | 6.13 ± 0.192 | 3.93 ± 0.753 | 5.38 ± 0.92
5 | SAGGSAGGSVKPGEKVLVRVRNPATGRWEEVVATVNEDGSITIYNKETGKTETIPLKDIELVPSAGGSAGGS [r12_726_TrROS_Hall] | 19.2 ± 0.711 | 17.8 ± 0.23 | 18.3 ± 0.368
6 | SAGGMITEEEILELEKRIREAAEAGDPETVEEELERAKEALEEYKKKGNKELLKKVEEIVKRAEELIASAGG [r13_137_JUSTAS] | 15.9 ± 0.837 | 11.3 ± 0.586 | 14 ± 1.09
7 | SAGGSAGGSAGGVKEFDALAGGVPVKVKVYPDPDGNPRVEVIFPDGSKVTLSADEPLNLSAGGSAGGSAGGS [r10_989_TrMRF] | 9.45 ± 0.28 | 6.61 ± 0.335 | 7.83 ± 0.285
8 | GMSVTSYETDPNTGGPSISISSAPDPKTGLLSAPVTVYDPKTGQSKTINLTATSSEELAAKIAELLPASLLS [r1_156_JUSTAS] | 5.83 ± 0.1 | 0.693 ± 0.711 | 4.06 ± 0.41
9 | SAGWHEIEIEIMIPFPKENAEELAKEIAEEIARMHGFKITNIEVQVYPTDGEYYVMIPVKIRIPPPNDTSAG [r14_219_TrROS] | 11.7 ± 0.255 | 13.2 ± 0.234 | 12.7 ± 0.46
10 | SAGGGTYYLIFKITETKTDPKTGKTTTSEKVIVDPLENPGSISAEEIAKLKEELEPKGYTVEIEIKPKSAGG [r13_926_JUSTAS] | 2.74 ± 0.188 | 5.92 ± 1.13 | 4.49 ± 0.962
11 | SAGGSAGGSKKIMIPGSPDTAFSTIKEWIRNGHEVPIYYYSPGNPEPVAEQEITIDEEENDELSAGGSAGGS [r12_241_TrROS] | -2.86 ± 1.26 | -0.764 ± 0.879 | -1.29 ± 0.837
12 | SAGGSAGGSAGSMVSVEVEESELPPPYRLVTEKVSLPGSETVIEVVRDPATGEVLETKVFASSAGGSAGGSA [r18_507_JUSTAS] | 15.8 ± 1.17 | 13.9 ± 1.05 | 14.1 ± 2.47
13 | SAGKKTITVPLKDLKKVLEELKKKYPNIKKVKIYVNGKEYEIKVGEKVKITEVIKNENGEEFVKIEIYKSAG [r5_130_TrROS_Hall] | 12.4 ± 0.711 | 14.3 ± 0.343 | 13.8 ± 0.92
14 | SAGGSAGGYIVKIKMPKFPHVFIFPPEMPPKQFADEIRRRFGNPDAPITDITIQPVTPEELKKLSAGGSAGG [r6_122_TrROS] | 3.29 ± 0.247 | 5.86 ± 0.502 | 4.84 ± 0.502
15 | SAGKKYIVVVNVDFGSPEKKESAPIVLELDEDEEVSEALAKIPGLEDVKVEVYVIEAEENPELAENPGSAGG [r19_339_TrMRF] | 1.3 ± 0.46 | 5.79 ± 0.347 | 4.16 ± 0.837
16 | SAGGSADEVEITLELEVELAPGQKTLTFKLLNLPPGLKFEVEEVELKVVEEDGKLRVEATIRIKKDSAGGSA [r15_321_TrROS_Hall] | 12 ± 0.711 | 18.2 ± 0.711 | 15.6 ± 0.669
17 | SAGASVSRPVSADEEFSVTVPPEPVTLEVTVYRPDGSVLSSRTIPVGPNTTVTLNVPDPDWSVSFSPVASAG [r5_797_JUSTAS] | -0.0858 ± 0.837 | 0.343 ± 0.753 | 0.97 ± 0.837
